Measurements published in article PMC8175443, “In vitro assessment and phase I randomized clinical trial of anfibatide a snake venom derived anti-thrombotic agent targeting human platelet GPIbα” (Scientific Reports, 2021).
Where a chain is given by its changes, count along the chain named.

B1: anfibatide (natural protein)
chain 1: DVDCLPGWSAYDQSCYRVFKLLKTWDDAEKFCTERPKGGHLVSIESAGERDFVAQLVSENKQTDNVWLGLKIQSKGQQCSTEWTDGSSVSYENFSEYQSKKCFVLEKNTGFRTWLNLNCGSEYAFVCKSPP
chain 2: GFCCPLRWSSYEGHCYLVVKEKKTWDDAEKFCTEQRKGGHLVSVHSREEADFLVHLAYPILDLSLIWMGLSNMWNDCKREWSDGTKLDFKAWAKTSDCLIGKTDGDNQWLNMDCSKKHYFVCKFKL
notes: anfibatide (agkisacucetin) alpha-subunit, snaclec of Deinagkistrodon acutus venom; disulfide-linked to the beta-subunit; anfibatide (agkisacucetin) beta-subunit, snaclec of Deinagkistrodon acutus venom; disulfide-linked to the alpha-subunit; Disulfide-linked alpha-beta heterodimer; MALDI-TOF single peak at m/z 29,799.7; also called agkisacucetin
B2: GPIbαN-Long WT (domain or fragment)
chain: HPHPICEVSKVASHLEVNCDKRNLTALPPDLPKDTTILHLSENLLYTFSLATLMPYTRLTQLNLDRCELTKLQVDGTLPVLGTLDLSHNQLQSLPLLGQTLPALTVLDVSFNRLTSLPLGALRGLGELQELYLKGNELKTLPPGLLTPTPKLEKLSLANNNLTELPAGLLNGLENLDTLLLQENSLYTIPKGFFGSHLLPFAFLHGNPWLCNCEILYFRRWLQDNAENVYVWKQGVDVKAMTSNVASVQCDNSDKFPVYKYPGKGCPTLGDEGDTDLYDYYPEEDTEGDK
modifications: sulfotyrosine at 276, 278, 279 (post translational sulfation that normally occurs at these positions)
B3: GPIbαN-Long 3Y/F (domain or fragment)
chain: B2 chain with Y278F, Y280F, Y281F
modifications: no Tyr sulfation at mature 276, 278, 279 (Tyr to Phe). Mature residue 1 = precursor 17 with no residue 0, so -2 = precursor 15. Disulfide-linked dimer through terminal Cys of the C-terminal …

Legend:
GPIbα (Homo sapiens) = GPIbα (Homo sapiens) (UniProt P07359); conditions: cited from earlier work
[1] = target: T1, GPIbα on human washed platelets (human (endogenous in platelets), UniProt P07359 17-652); assay: flow cytometry on cells; competition on human washed platelets (2 x 10^7/mL, modified Tyrode's buffer pH 7.4, room temperature, 30 min); ligand: BP-αFIIa at 80 nM with streptavidin-PE; anfibatide 0-200 nM added 5 min before; Ki by Cheng-Prusoff; conditions: one partner purified
T1 construct: human platelet glycoprotein Ibα, endogenous on the platelet surface; also called platelet GPIbα; glycoprotein (GP) Ibα; source: endogenous, washed platelets of healthy human volunteers

[2] = target: T1, GPIbα on human washed platelets; assay: flow cytometry on cells; competition on human washed platelets (2 x 10^7/mL, modified Tyrode's buffer pH 7.4, room temperature, 30 min); ligand: FITC-conjugated mAb LJ-Ib10 at 10 nM; anfibatide 0-200 nM added 5 min before; Ki by Cheng-Prusoff; conditions: one partner purified
[3] = target: T1, GPIbα on human washed platelets; assay: flow cytometry on cells; competition on human washed platelets (2 x 10^7/mL, modified Tyrode's buffer pH 7.4, room temperature, 30 min); ligand: VWF A1 domain at 1.5 nM with FITC anti-VWF mAb; anfibatide 0-200 nM added 5 min before; Ki by Cheng-Prusoff; conditions: one partner purified
anfibatide = target: B1; assay: SPR; GPIbαN-Long captured by immobilised anti-SV40 mAb LJ-3A2 on an HC200M chip; anfibatide injected at increasing concentrations, 75 μL/min for 3 min; Biacore 3000; 135 mM NaCl, 20 mM HEPES pH 7.4, 0.005% Tween 20; steady-state mass ratios fit to a one-site model; conditions: both partners purified

Q: For VWF (from UniProt P04275), which Kd (GPIbα (Homo sapiens)) is on record?
A: The Kd was 1.5 nM.

Q: For B1, which Ki [1] is on record?
A: The Ki was 1.4 ± 0.1 nM.

Q: And the Ki [2]?
A: The Ki was 3.4 ± 1.1 nM.

Q: What about the Ki [3] of the same molecule?
A: The Ki was 1.2 ± 0.5 nM.

Q: For B2, which Kd (anfibatide) is on record?
A: The Kd was 21 ± 0.9 nM.

Q: With B3 as the molecule, how does the Kd (anfibatide) read?
A: The Kd was 90.5 ± 9.2 nM.
